Like-named read-outs stand apart in the source and are kept apart here.
What was measured:
Assay in all cases: EMSA
CST (CTC1-STN1-TEN1) = CST (CTC1-STN1-TEN1) (human, UniProt Q2NKJ3;Q9H668;Q86WV5 1-1217;1-368;1-123)
RPA [1] = molecular target: T1, RPA (UniProt P27694;P15927;P35244 1-616;1-270;1-121)
RPA [2] = molecular target: T1, RPA; remark: listed apart in the source

T1 sequence (P27694 whole entry, chain 1 of 3): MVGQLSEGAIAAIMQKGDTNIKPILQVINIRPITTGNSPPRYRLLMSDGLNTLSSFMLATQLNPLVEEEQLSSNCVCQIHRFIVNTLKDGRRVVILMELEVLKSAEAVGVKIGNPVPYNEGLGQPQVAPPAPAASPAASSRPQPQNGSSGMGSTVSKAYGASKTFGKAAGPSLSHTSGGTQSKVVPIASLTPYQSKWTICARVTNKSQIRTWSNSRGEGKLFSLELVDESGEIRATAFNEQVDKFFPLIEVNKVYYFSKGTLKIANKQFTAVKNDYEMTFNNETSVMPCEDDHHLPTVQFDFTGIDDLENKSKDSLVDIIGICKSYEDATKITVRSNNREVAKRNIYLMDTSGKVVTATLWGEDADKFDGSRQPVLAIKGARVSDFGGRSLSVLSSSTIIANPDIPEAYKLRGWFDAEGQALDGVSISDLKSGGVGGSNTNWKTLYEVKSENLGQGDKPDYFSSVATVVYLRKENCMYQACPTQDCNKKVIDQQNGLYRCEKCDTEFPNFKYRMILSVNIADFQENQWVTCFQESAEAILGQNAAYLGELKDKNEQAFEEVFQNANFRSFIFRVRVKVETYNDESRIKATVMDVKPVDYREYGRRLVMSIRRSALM
T1 sequence (P15927 whole entry, chain 2 of 3): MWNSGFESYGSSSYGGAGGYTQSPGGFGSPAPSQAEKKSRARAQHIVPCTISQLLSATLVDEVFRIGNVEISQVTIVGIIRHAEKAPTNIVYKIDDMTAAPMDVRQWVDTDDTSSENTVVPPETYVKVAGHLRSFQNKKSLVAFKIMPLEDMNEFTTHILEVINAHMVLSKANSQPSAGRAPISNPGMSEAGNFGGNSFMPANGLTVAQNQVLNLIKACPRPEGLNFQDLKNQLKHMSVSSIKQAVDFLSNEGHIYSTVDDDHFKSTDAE
T1 sequence (P35244 whole entry, chain 3 of 3): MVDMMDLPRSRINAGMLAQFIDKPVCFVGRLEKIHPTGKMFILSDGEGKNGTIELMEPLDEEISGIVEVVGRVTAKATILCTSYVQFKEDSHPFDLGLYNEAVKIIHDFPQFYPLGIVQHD
Chain of CST (CTC1-STN1-TEN1) (Q2NKJ3 whole entry, chain 1 of 3): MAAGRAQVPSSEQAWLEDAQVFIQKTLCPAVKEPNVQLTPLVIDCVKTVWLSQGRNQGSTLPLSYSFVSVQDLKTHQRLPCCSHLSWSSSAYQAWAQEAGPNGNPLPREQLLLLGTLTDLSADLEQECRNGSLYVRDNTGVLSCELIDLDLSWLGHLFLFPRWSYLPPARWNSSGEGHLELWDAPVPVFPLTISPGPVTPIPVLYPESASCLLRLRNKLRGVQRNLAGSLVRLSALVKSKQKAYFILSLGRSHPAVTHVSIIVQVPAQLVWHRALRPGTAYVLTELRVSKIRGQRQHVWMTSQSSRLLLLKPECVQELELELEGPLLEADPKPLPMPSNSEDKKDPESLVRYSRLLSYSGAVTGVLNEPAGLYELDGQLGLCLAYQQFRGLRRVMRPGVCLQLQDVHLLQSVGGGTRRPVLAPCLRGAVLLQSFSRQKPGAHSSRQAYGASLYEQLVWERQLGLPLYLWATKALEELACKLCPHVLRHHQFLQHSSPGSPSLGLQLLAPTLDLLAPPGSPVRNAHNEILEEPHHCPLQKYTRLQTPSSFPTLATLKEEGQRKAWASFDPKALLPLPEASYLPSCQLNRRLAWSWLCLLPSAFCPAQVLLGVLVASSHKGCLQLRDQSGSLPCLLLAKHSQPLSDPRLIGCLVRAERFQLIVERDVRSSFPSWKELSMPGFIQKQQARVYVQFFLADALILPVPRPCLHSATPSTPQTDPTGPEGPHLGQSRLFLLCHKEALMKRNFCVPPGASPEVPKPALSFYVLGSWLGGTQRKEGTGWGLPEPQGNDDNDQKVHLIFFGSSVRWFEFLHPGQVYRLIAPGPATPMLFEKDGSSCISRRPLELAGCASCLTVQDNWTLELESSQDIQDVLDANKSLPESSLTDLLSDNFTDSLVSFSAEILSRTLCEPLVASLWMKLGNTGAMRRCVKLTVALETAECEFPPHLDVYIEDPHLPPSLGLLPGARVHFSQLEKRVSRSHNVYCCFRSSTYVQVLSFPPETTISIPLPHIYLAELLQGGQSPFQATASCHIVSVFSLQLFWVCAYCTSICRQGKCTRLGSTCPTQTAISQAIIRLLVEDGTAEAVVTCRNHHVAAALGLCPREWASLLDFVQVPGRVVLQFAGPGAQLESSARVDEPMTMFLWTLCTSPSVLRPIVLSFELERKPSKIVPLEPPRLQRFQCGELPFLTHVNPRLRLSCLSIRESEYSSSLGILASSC
Chain of CST (CTC1-STN1-TEN1) (Q9H668 whole entry, chain 2 of 3): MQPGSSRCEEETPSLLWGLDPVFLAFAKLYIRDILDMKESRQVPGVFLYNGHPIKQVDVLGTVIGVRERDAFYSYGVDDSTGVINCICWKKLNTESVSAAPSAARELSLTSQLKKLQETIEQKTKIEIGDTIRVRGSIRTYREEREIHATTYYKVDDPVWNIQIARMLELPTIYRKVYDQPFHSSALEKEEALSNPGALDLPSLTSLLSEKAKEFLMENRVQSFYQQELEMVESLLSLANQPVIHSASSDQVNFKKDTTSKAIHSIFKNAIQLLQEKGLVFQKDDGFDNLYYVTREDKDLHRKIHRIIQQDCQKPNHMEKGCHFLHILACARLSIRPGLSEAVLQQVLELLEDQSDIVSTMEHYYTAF
Chain of CST (CTC1-STN1-TEN1) (Q86WV5 whole entry, chain 3 of 3): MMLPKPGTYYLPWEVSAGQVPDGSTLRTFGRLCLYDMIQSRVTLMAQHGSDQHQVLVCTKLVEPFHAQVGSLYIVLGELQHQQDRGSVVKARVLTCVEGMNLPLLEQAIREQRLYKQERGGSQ

B1: Tel21 (ssDNA)
DNA: GGGTTAGGGTTAGGGTTAGGG
B1 showed a Kd (CST (CTC1-STN1-TEN1)) of 1.3 nM and a Kd (RPA [1]) of 1.9 nM.

B2: Tel21 G4 (structured_DNA)
DNA: GGGTTAGGGTTAGGGTTAGGG
B2 showed a Kd (RPA [2]) of 5.5 nM.
